One molecule from patent publication US20090036382A1, “TGF-Beta Modulators and Use Thereof” (Universita' Degli Studi Di Padova, priority 2006, published 2009) can be followed below.

Series [1] concerns the target T1, pro TGF-β1 processing (Homo sapiens, UniProt P01137).
T1 construct: Flag; expressed in transfected cells; host or cells: HEK293T (A6); mouse embryo fibroblasts (A8)
Put plainly: Western blot of pro TGF-β1 conversion to LAP and mature TGF-β1 in transfected HEK293T cells. The class given is cell-based. The note with it: HEK293T cotransfected; cell extracts anti-LAP, supernatants anti-TGF-β1; FIG. 4D. From the text: • The construct for emilin 1 expression was engineered in pCS2 vector (Rupp R. A. et al., 1994, Genes Dev 8, 1311-1323) (for a physical map of the vector, see the site faculty.washington.edu/rtmoon/pcs2+.html) as described (Zanetti M. et al., 2004, Mol Cell Biol 24, 638-650); the vector used for proTGF-β expression in MEF and HEK293T cells is pCDNA3.1 (Invitrogen). Vectors containing the coding sequence for human pro TGF-β are described in Young and Murphy-Ullrich, 2004 (Young and Murphy-Ullrich, 2004, J Biol Chem 279, 38032-38039). The human pro TGF-β cDNA sequence is reported in the data bank (NP_000660; protein 000651). • The vector for Furin/SPC 1 expression is pCDNA3.1 (Invitrogen) • p15 and CAGA 12 promoter fragments are described in Jonk L. J. et al., 1998, J Biol Chem 273, 21145-21152 […]. • Constructs containing Flag sequences are described in Young G. D and Murphy-Ullrich J E, 2004, J Biol Chem 279, 38032-38039. • Constructs containing the Flag epitope (e.g. Flag-EMI-domain-GPI) were prepared as described in Chubet R G et al. Biotechniques 1996; 20(1):136-141 and detected by anti-Flag antibody (Kodak Inc.). • Constructs containing the GPI anchor were prepared as described in the Manual “Current Protocols in Cell Biology” Howard R. Petty Wayne State University, Detroit, Mich.; Juan S. Bonifacino, Mary Dasso, Joe B. Harford, Jennifer Lippincott-Schwartz, and Kenneth M. Yamada (eds.), Copyright C 2003 John Wiley & Sons, Inc. (GPI-anchor). In the construct Flag-EMI domain-GPI, the Flag sequence was inserted at the N-terminus after the signal peptide, while the GPI-anchor sequence was placed at the COOH-terminal end. • The construct emilin 1-KDEL was obtained by inserting the KDEL coding sequence described by Munro S., and Pelham, H. R., 1987, Cell 48, 899-907 upstream the emilin 1 STOP codon. • The construct containing the type II TGF-β receptor with HA epitope was described in Wrana J. L. et al., 1994, Nature 370, 341-347. • supplier of the drugs used: SP600125 (Calbiochem), SB431542 (Tocris). • Purified recombinant LAP and TGF-β1 proteins were purchased from (R&D Systems)
To verify whether emilin or its EMI domain inhibit TGF-β or its precursor, HEK293T cells were cotransfected with plasmids driving the expression of pro TGF-β1 (fused to the FLAG-domain, even though the antibody used were directed at LAP and TGF-β proteins) and emilin-1 (or EMI-domain). […] The anti-Flag antibody used was obtained from Kodak Inc; for the preparation of Flag constructs, see Younjg and Murphy-Ullrich (Young and Murphy-Ullrich, 2004).
As reported in the summary scheme above FIG. 5A, HEK293T cells were transfected with the plasmid encoding pro TGF-β1 (lane 1) and cotransfected with emilin-1 (lane 3) or treated with decanoyl-RVKR-CMK peptide (Decanoyl-Arg-Val-Lys-Arg-chloromethylketone, Alexis Corporation, Lausen, Switzerland) (lane 2) at a concentration of 100 μM. The peptide is an irreversible and competitive inhibitor of furin proprotein convertase and of other SPC family members (Proprotein Convertase); in addition, it inhibits pro-MMP2 dependent furin activation. The supernatant was then loaded on SDS-PAGE and detected by Western-blot with anti-TGF-β1 antibody. […] An increase of the precursor band in lanes 2 and 3 is […] to the decrease of TGF-β. Therefore it can be concluded that this assay detects an effect of emilin-1 on TGF-β1 processing that is similar to the effect of Furin inhibitors.
(A western blot detects proteins with antibodies after separation by electrophoresis.)

Series [2] has as its target T2, pro TGF-β (Homo sapiens, UniProt P01137).
T2 construct: expressed in transfected cells; host or cells: HEK293T
Description: Co-immunoprecipitation / Western blot of EMI domain or emilin1 with pro TGF-β in HEK293T cells. The format is binding. The following applies: HEK293T cell extracts or culture medium; anti-Flag / anti-LAP IP; FIG. 4A-4C. From the text: • The construct for emilin 1 expression was engineered in pCS2 vector (Rupp R. A. et al., 1994, Genes Dev 8, 1311-1323) (for a physical map of the vector, see the site faculty.washington.edu/rtmoon/pcs2+.html) as described (Zanetti M. et al., 2004, Mol Cell Biol 24, 638-650); the vector used for proTGF-β expression in MEF and HEK293T cells is pCDNA3.1 (Invitrogen). Vectors containing the coding sequence for human pro TGF-β are described in Young and Murphy-Ullrich, 2004 (Young and Murphy-Ullrich, 2004, J Biol Chem 279, 38032-38039). […]

The test system of series [3] is mature TGF-β1. Put plainly: CAGA12-lux luciferase reporter in HEK293T cells treated with recombinant TGF-β1. The class given is cell-based. The following applies: 5 ng/ml recombinant TGF-β1, expression vector 500 ng, FIG. 2B. On the procedure: To verify how emilin or the EMI domain can contrast TGF-β1 activity independently from receptor binding, HEK293T cells were transfected with a construct coding luciferase placed under control of a TGF-β activated promoter: CAGA12-lux (Jonk et al., 1998) alone or in combination with a emilin1 expression vector (500 ng) as shown in FIG. 2B. After transfection, cells were treated (black bar) or not treated (white bar) with 5 ng/ml recombinant TGF-1 (lanes 1 and 2). Column bars from 3 to 6 report luciferase expression values in experiments with cells co-transfected with the expression vector for emilin1 (or EMI-domain or emilin1ΔEMI) alone (white bars) or in combination with the vector encoding pro TGF-β1 (black bars). Values show the mean±st. dev.
(In general: In a reporter assay the amount or activity of a reporter protein is the signal.)

“Also recorded” adds a separate entry of the source.

T2 sequence (P01137 30-390): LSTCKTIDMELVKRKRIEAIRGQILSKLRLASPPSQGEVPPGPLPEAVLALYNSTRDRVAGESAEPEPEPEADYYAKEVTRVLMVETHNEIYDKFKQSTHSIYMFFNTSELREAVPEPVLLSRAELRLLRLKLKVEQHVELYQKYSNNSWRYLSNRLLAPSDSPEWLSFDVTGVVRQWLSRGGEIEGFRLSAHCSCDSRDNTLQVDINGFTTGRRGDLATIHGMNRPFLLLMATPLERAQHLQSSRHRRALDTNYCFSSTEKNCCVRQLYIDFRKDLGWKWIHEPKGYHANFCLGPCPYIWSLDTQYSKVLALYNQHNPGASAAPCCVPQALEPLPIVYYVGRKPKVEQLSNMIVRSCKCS
T1 sequence (P01137 30-390): as above

B1: EMI domain: cysteine-rich domain of emilin-1, residues 55-131, SEQ ID NO 2; in some experiments Flag-tagged and GPI-anchored (protein)
chain: RHRNWCAYVVTRTVSCVLEDGVETYVKYQPCAWGQPQCPQSIMYRRFLRPRYRVAYKTVTDMEWRCCQGYGGDDCAE
modifications: sometimes Flag tag and GPI anchor; homo sapiens
notes: in some experiments Flag-tagged and GPI-anchored
Turning to B1, the “Conversion of pro TGF-β1 to LAP and mature TGF-β1 (band intensity)” value in series [1] is on record as “inhibit the conversion of pro TGF-β1”. The “Interaction with pro TGF-β (co-immunoprecipitation)” value in series [2] is recorded as “interacts specifically; also recorded: interacts only with the intact pro TGF-β molecule”. In addition, the “Effect on luciferase expression induced by mature TGF-β” value in series [3] was “does not antagonize mature TGF-β”.
